Ends that are not written are not given here. Me3 = tri-methylated lysine; Me2 = di-methylated lysine

Assay [1] concerns the target T1, His-ORCA (baculovirus) (human, UniProt Q9UFC0 1-647).
T1 construct: ORCA/LRWD1 in pFastBac HT-B; also called purified His-tagged-ORCA; baculovirally purified His-ORCA; source: Hi5 insect cells (baculovirus), nuclear extract, 45% ammonium sulfate precipitation; called 'baculovirally purified'
T1 sequence (looked up): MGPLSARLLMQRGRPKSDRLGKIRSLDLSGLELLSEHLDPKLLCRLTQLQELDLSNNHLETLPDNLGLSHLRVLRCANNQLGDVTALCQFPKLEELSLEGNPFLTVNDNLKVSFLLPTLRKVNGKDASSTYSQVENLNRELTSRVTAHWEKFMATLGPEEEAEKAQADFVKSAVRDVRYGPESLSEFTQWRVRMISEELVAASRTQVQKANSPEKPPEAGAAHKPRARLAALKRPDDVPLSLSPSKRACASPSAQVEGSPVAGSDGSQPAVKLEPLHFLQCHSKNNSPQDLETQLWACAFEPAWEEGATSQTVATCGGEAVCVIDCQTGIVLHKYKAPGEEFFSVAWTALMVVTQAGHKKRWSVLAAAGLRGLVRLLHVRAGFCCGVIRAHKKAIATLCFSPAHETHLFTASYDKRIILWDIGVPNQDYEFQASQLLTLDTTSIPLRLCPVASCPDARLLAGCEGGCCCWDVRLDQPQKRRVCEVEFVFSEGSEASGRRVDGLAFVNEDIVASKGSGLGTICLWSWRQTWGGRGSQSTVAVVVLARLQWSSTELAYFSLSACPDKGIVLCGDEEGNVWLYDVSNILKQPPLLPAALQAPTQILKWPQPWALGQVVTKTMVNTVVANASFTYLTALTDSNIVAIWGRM
The experiment in a line: pull-down; H3 (1-15) peptides coupled to SulphoLink (iodoalkyl agarose) resin, incubated with baculovirally purified His-ORCA 2 hr at RT in PK 150 buffer (150 mM KCl, 0.02% NP-40); immunoblot. The settings on record: both partners purified.

Assay [2] has as its target T2, T7-ORCA (full-length) (human, UniProt Q9UFC0 1-647).
T2 construct: ORCA/LRWD1, full length; also called T7-tagged ORCA; full-length T7-ORCA; source: U2OS, transiently transfected, in lysate
T2 sequence (looked up): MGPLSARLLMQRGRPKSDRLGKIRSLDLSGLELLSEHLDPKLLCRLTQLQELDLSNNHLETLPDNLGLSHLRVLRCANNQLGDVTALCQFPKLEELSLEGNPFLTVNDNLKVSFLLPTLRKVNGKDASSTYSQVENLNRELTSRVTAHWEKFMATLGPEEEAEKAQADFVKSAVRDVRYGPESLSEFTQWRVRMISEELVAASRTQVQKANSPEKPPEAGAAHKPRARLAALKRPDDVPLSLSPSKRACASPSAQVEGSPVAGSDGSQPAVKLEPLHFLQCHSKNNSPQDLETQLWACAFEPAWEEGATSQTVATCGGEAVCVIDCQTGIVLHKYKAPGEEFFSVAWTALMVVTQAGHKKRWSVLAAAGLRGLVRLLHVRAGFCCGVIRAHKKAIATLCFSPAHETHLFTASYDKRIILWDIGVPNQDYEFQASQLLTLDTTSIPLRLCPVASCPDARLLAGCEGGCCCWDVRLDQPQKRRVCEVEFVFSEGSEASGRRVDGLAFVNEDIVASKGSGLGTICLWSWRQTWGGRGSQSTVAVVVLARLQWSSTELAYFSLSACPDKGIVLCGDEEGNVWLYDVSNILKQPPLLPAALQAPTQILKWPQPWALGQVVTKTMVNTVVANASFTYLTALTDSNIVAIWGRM
In words: single-molecule pull-down (SiMPull); biotinylated T7 antibody on NeutrAvidin/PEG quartz slides; U2OS lysates co-expressing T7-ORCA and one YFP protein; TIRF, YFP photobleaching steps; biotinylated HA antibody as control. Particulars: partners not purified.

B1: Histone H3 (1–15) peptide, K9 di-methylated, N-terminal cysteine (peptide)
peptide: CARTKQTARK(Me2)STGGKA
notes: a cysteine at the N terminus, for coupling to the resin; human histone H3, amino acids 1-15; also called H3K9me2 peptide; source: synthetic peptide (Biomer technology), coupled to SulphoLink resin
Consider B1, for which, in assay [1], the binding result is listed as “binds”.

B2: Histone H3 (1–15) peptide, K9 mono-methylated, N-terminal cysteine (peptide)
peptide: CARTKQTARK(Me)STGGKA
notes: a cysteine at the N terminus, for coupling to the resin; human histone H3, amino acids 1-15; also called H3K9me1 peptide; source: synthetic peptide (Biomer technology), coupled to SulphoLink resin
For B2, in assay [1], the binding result is listed as “binds”.

B3: YFP-ORC1 (natural protein, UniProt Q13415 1-861, looked up)
chain: MAHYPTRLKTRKTYSWVGRPLLDRKLHYQTYREMCVKTEGCSTEIHIQIGQFVLIEGDDDENPYVAKLLELFEDDSDPPPKKRARVQWFVRFCEVPACKRHLLGRKPGAQEIFWYDYPACDSNINAETIIGLVRVIPLAPKDVVPTNLKNEKTLFVKLSWNEKKFRPLSSELFAELNKPQESAAKCQKPVRAKSKSAESPSWTPAEHVAKRIESRHSASKSRQTPTHPLTPRARKRLELGNLGNPQMSQQTSCASLDSPGRIKRKVAFSEITSPSKRSQPDKLQTLSPALKAPEKTRETGLSYTEDDKKASPEHRIILRTRIAASKTIDIREERTLTPISGGQRSSVVPSVILKPENIKKRDAKEAKAQNEATSTPHRIRRKSSVLTMNRIRQQLRFLGNSKSDQEEKEILPAAEISDSSSDEEEASTPPLPRRAPRTVSRNLRSSLKSSLHTLTKVPKKSLKPRTPRCAAPQIRSRSLAAQEPASVLEEARLRLHVSAVPESLPCREQEFQDIYNFVESKLLDHTGGCMYISGVPGTGKTATVHEVIRCLQQAAQANDVPPFQYIEVNGMKLTEPHQVYVQILQKLTGQKATANHAAELLAKQFCTRGSPQETTVLLVDELDLLWTHKQDIMYNLFDWPTHKEARLVVLAIANTMDLPERIMMNRVSSRLGLTRMCFQPYTYSQLQQILRSRLKHLKAFEDDAIQLVARKVAALSGDARRCLDICRRATEICEFSQQKPDSPGLVTIAHSMEAVDEMFSSSYITAIKNSSVLEQSFLRAILAEFRRSGLEEATFQQIYSQHVALCRMEGLPYPTMSETMAVCSHLGSCRLLLVEPSRNDLLLRVRLNVSQDDVLYALKDE
notes: origin recognition complex subunit 1; source: U2OS, transiently transfected, in lysate
On to B3, for which the “stoichiometry N” value in assay [2] is 1 Orc1 per ORCA.

B4: YFP-Suv39H1 (enzyme, UniProt O43463 1-412, looked up)
chain: MAENLKGCSVCCKSSWNQLQDLCRLAKLSCPALGISKRNLYDFEVEYLCDYKKIREQEYYLVKWRGYPDSESTWEPRQNLKCVRILKQFHKDLERELLRRHHRSKTPRHLDPSLANYLVQKAKQRRALRRWEQELNAKRSHLGRITVENEVDLDGPPRAFVYINEYRVGEGITLNQVAVGCECQDCLWAPTGGCCPGASLHKFAYNDQGQVRLRAGLPIYECNSRCRCGYDCPNRVVQKGIRYDLCIFRTDDGRGWGVRTLEKIRKNSFVMEYVGEIITSEEAERRGQIYDRQGATYLFDLDYVEDVYTVDAAYYGNISHFVNHSCDPNLQVYNVFIDNLDERLPRIAFFATRTIRAGEELTFDYNMQVDPVDMESTRMDSNFGLAGLPGSPKKRVRIECKCGTESCRKYLF
notes: Suv39H1; human clones in pEYFP and pSV2-YFP-mSuv39H1 are both named in the methods; source: U2OS, transiently transfected, in lysate
For the molecule B4, the “stoichiometry N” value in assay [2] worked out at 1 Suv39H1 per ORCA.

B5: Histone H3 (1–15) peptide, K9 tri-methylated, N-terminal cysteine (peptide)
peptide: CARTKQTARK(Me3)STGGKA
notes: a cysteine at the N terminus, for coupling to the resin; human histone H3, amino acids 1-15; also called H3K9me3 peptide; source: synthetic peptide (Biomer technology), coupled to SulphoLink resin
As for B5, the binding result in assay [1] was “binds”.
